Results reported in article PMC3173486.

B1: RpSP-D multimers (natural protein)
chain: AEMKTYSQRAVANACALVMCSPMENGLPGRDGRDGREGPRGEKGDPGLPGAVGRAGMPGLAGPVGPKGDNGSTGEPGAKGDIGPCGPPGPPGIPGPAGKEGPSGQQGNIGPPGTPGPKGETGPKGEVGALGMQGSTGARGPAGLKGERGAPGERGAPGSAGAAGPAGATGPQGPSGARGPPGLKGDRGPPGERGAKGESGLPGITALRQQVETLQGQVQRLQKAFSQYKKVELFPNGRGVGEKIFKTGGFEKTFQDAQQVCTQAGGQMASPRSETENEALSQLVTAQNKAAFLSMTDIKTEGNFTYPTGEPLVYANWAPGEPNNNGGSSGAENCVEIFPNGKWNDKACGELRLVICEF
B2: RpSP-D trimers (natural protein)
chain: B1 chain

Target: HA of all the influenza A/H3N2 viruses tested with RpSP-D multimers and trimers

Binder | HI assay: minimal inhibitory concentration of RpSP-D multimers [ng/100 µl] | HI assay: minimal inhibitory concentration of RpSP-D trimers [ng/100 µl]
B1 | 8.7 | –
B2 | – | 124
